Results taken from the supplement of paper PMC7125110.
± gives the standard error. For part of these data: Variants at the floor of the assay were thinned out.

B1: glmS ribozyme (parent)
chain: AUAAAAGCGCCAGAACUACAGAAAUGUAGUUGACGAGGAGGAGGUUUAUCGAAUUUUCGGCGGAUGCCUCCAAA

Key:
Settings in all cases: with glucosamine-6-phosphate
[1] = variants of: B1; experiment: kcat; higher = faster cleavage; RNA array
In short: (§1)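 Barcoded glmS ribozyme variants on sequenced MiSeq chips were transcribed in situ by E. coli RNA polymerase and tracked through a hybridised Cy3 probe at 37 °C. Glucosamine-6-phosphate (40 μM to 10 mM) in HEPES/KCl/Mg(OAc)2 buffer was flowed in, and tiles were imaged over ~14 h. Signals were normalised to baseline and to non-cleaving reference variants; per-tile medians were fit to one- or two-exponential decays to give kobs. kcat and KM came from weighted Michaelis–Menten fits across concentrations.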

[2] = variants of: B1; experiment: KM; higher = weaker cofactor use; RNA array
In short: as §1

[3] = variants of: B1; experiment: self-cleavage kobs at 40 uM GlcN6P; higher = faster cleavage; RNA array
In short: as §1

[4] = variants of: B1; experiment: self-cleavage kobs at 160 uM GlcN6P; higher = faster cleavage; RNA array
In short: as §1

[5] = variants of: B1; experiment: self-cleavage kobs at 640 uM GlcN6P; higher = faster cleavage; RNA array
In short: as §1

[6] = variants of: B1; experiment: self-cleavage kobs at 2500 uM GlcN6P; higher = faster cleavage; RNA array
In short: as §1

[7] = variants of: B1; experiment: self-cleavage kobs at 10000 uM GlcN6P; higher = faster cleavage; RNA array
In short: as §1

Variant	kcat [1]	KM [2]	self-cleavage kobs at 40 uM GlcN6P [3]	self-cleavage kobs at 160 uM GlcN6P [4]	self-cleavage kobs at 640 uM GlcN6P [5]	self-cleavage kobs at 2500 uM GlcN6P [6]	self-cleavage kobs at 10000 uM GlcN6P [7]
G32A U45A	0.00555 ± 0.00055 s⁻¹	2.58 ± 0.37 mM	9.16e-05 ± 1.5e-05 s⁻¹	0.000267 ± 6.7e-05 s⁻¹	0.00117 ± 0.00024 s⁻¹	0.003 ± 0.001 s⁻¹	0.00438 ± 0.00057 s⁻¹
G32A U45G	0.000591 ± 0.00017 s⁻¹	–	–	–	0.000212 ± 4.3e-05 s⁻¹	0.000204 ± 5.3e-05 s⁻¹	0.000488 ± 5.2e-05 s⁻¹
G32C A33G	< 1e-05 s⁻¹	–	< 1e-05 s⁻¹	< 1e-05 s⁻¹	–	< 1e-05 s⁻¹	–
C34G G37U	< 1e-05 s⁻¹	–	–	–	< 1e-05 s⁻¹	–	< 1e-05 s⁻¹
A36C C68G	7.04e-05 ± 2.3e-05 s⁻¹	–	3.7e-05 ± 1.3e-05 s⁻¹	–	0.000107 ± 1.7e-05 s⁻¹	4.55e-05 ± 1.3e-05 s⁻¹	8.61e-05 ± 3.4e-05 s⁻¹
U31C U57G C67A	< 1e-05 s⁻¹	–	–	< 1e-05 s⁻¹	–	–	–
A36C U69C	1.31e-05 ± 3.1e-06 s⁻¹	–	–	–	–	< 1e-05 s⁻¹	–
C34A G51U	0.000727 ± 0.00012 s⁻¹	3.28 ± 1.2 mM	–	–	0.000141 ± 3e-05 s⁻¹	0.000354 ± 6.1e-05 s⁻¹	0.000537 ± 4.9e-05 s⁻¹
G32A U54C	0.00356 ± 0.0013 s⁻¹	–	3.45e-05 ± 1.1e-05 s⁻¹	–	0.000309 ± 6.5e-05 s⁻¹	0.00147 ± 0.00026 s⁻¹	0.0022 ± 0.00036 s⁻¹
U31G G35U C67G	< 1e-05 s⁻¹	–	–	–	–	–	–
A36C G66U	< 1e-05 s⁻¹	–	–	–	–	–	–
G32A U55A	0.00351 ± 0.00053 s⁻¹	3.54 ± 0.69 mM	5.08e-05 ± 9.5e-06 s⁻¹	0.00014 ± 1.7e-05 s⁻¹	0.000541 ± 5.3e-05 s⁻¹	0.00144 ± 0.00022 s⁻¹	0.00261 ± 0.00038 s⁻¹
U31G G43A	1.25e-05 ± 3.3e-06 s⁻¹	–	–	–	–	–	–
G32U U69C	0.00053 ± 3.6e-05 s⁻¹	3.47 ± 0.47 mM	–	–	7.6e-05 ± 2.3e-05 s⁻¹	0.000232 ± 4.8e-05 s⁻¹	0.000391 ± 5.4e-05 s⁻¹
G32U G40A	0.000344 ± 5e-05 s⁻¹	3.45 ± 0.95 mM	–	–	6.33e-05 ± 6.7e-06 s⁻¹	0.000131 ± 1e-05 s⁻¹	0.000267 ± 1.9e-05 s⁻¹
G32A A42G A64G	0.00178 ± 0.00063 s⁻¹	–	3.12e-05 ± 1.5e-05 s⁻¹	–	0.000716 ± 0.00024 s⁻¹	–	0.0016 ± 0.00039 s⁻¹
G32A U69G	6.22e-05 ± 1.2e-05 s⁻¹	–	3.77e-05 ± 1.4e-05 s⁻¹	–	0.000117 ± 1.8e-05 s⁻¹	5.99e-05 ± 9.1e-06 s⁻¹	5.26e-05 ± 8.5e-06 s⁻¹
U31C G63U	< 1e-05 s⁻¹	–	–	–	–	< 1e-05 s⁻¹	–
C34G C68G	2.55e-05 ± 1e-05 s⁻¹	–	–	–	–	–	–

Variant	kcat [1]	KM [2]	self-cleavage kobs at 40 uM GlcN6P [3]	self-cleavage kobs at 160 uM GlcN6P [4]	self-cleavage kobs at 640 uM GlcN6P [5]	self-cleavage kobs at 2500 uM GlcN6P [6]	self-cleavage kobs at 10000 uM GlcN6P [7]
A33C G40A	2.31e-05 ± 2.6e-06 s⁻¹	4.07 ± 1.4 mM	–	–	–	–	–
G35U C50A	8.05e-05 ± 9.8e-06 s⁻¹	1.97 ± 0.74 mM	–	–	–	4.74e-05 ± 9e-06 s⁻¹	6.59e-05 ± 1.2e-05 s⁻¹
G32U A42C G51C C67U	1.49e-05 ± 6.1e-07 s⁻¹	3.62 ± 0.38 mM	–	–	–	–	–
A33C A36C G43A A52U	< 1e-05 s⁻¹	–	–	–	–	–	–
G32U U56C	0.000177 ± 3.9e-05 s⁻¹	2.99 ± 1.3 mM	< 1e-05 s⁻¹	–	2.54e-05 ± 8.9e-06 s⁻¹	0.000105 ± 2.1e-05 s⁻¹	0.000127 ± 2.4e-05 s⁻¹
G32A A39C	0.00032 ± 6.8e-05 s⁻¹	3.19 ± 1.3 mM	–	–	6.63e-05 ± 1.2e-05 s⁻¹	0.000114 ± 2.1e-05 s⁻¹	0.000259 ± 3.2e-05 s⁻¹
G35U G37C G60U	< 1e-05 s⁻¹	–	< 1e-05 s⁻¹	–	< 1e-05 s⁻¹	–	–
G35U C70U	< 1e-05 s⁻¹	–	–	< 1e-05 s⁻¹	< 1e-05 s⁻¹	–	< 1e-05 s⁻¹
U31G U65G	0.00259 ± 0.00018 s⁻¹	4.14 ± 0.44 mM	–	9.35e-05 ± 1.7e-05 s⁻¹	0.000375 ± 5.5e-05 s⁻¹	0.000924 ± 0.00017 s⁻¹	0.00184 ± 0.00019 s⁻¹
G32U A64G	0.000904 ± 0.0002 s⁻¹	3.13 ± 1.1 mM	–	4.19e-05 ± 1.1e-05 s⁻¹	0.000178 ± 2.3e-05 s⁻¹	0.00034 ± 4.6e-05 s⁻¹	0.000774 ± 0.00011 s⁻¹
G32U A33C	< 1e-05 s⁻¹	–	–	< 1e-05 s⁻¹	< 1e-05 s⁻¹	–	–
A36U A64C	< 1e-05 s⁻¹	–	< 1e-05 s⁻¹	< 1e-05 s⁻¹	–	< 1e-05 s⁻¹	< 1e-05 s⁻¹
A33G U65A C70G	4e-05 ± 6.6e-06 s⁻¹	0.627 ± 0.31 mM	< 1e-05 s⁻¹	–	–	–	–
G32C C71A	1.79e-05 ± 3.7e-06 s⁻¹	–	–	–	–	–	–
G35U A53U	< 1e-05 s⁻¹	–	–	–	< 1e-05 s⁻¹	–	–
C34A U46G	< 1e-05 s⁻¹	–	< 1e-05 s⁻¹	–	< 1e-05 s⁻¹	< 1e-05 s⁻¹	< 1e-05 s⁻¹
U31C U47A U56C	0.00113 ± 0.00024 s⁻¹	5.36 ± 1.7 mM	–	–	0.000111 ± 2.5e-05 s⁻¹	0.000487 ± 0.00011 s⁻¹	0.000707 ± 0.00012 s⁻¹
A36U U45A C50G	< 1e-05 s⁻¹	–	–	–	< 1e-05 s⁻¹	< 1e-05 s⁻¹	–
